Data published in patent publication US20210139554A1 (published 2021).

Legend:
[1] = target: T1, wild-type human IL-2 (human, UniProt P60568 21-153); assay: BIACORE
T1 construct: The construct used in ELISA and BIACORE is not described; also called hIL-2; WT IL-2

[2] = target: T2, cynomolgus monkey IL-2 (cynomolgus monkey, UniProt Q29615 21-154, limits assumed); assay: BIACORE
T2 construct: also called cyno IL-2
T2 sequence (Q29615 21-154 limits assumed): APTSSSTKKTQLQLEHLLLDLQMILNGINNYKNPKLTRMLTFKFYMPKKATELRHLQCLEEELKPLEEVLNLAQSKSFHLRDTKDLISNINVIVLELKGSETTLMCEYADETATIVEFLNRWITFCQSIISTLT

T1 sequence (P60568 21-153 limits assumed): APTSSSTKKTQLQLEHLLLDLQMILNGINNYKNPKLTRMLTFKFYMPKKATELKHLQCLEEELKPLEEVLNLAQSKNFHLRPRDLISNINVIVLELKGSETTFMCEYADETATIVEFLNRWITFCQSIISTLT

Binder	Kd [1]	Kd [2]
26H7 (antibody, V domains shown) VH: EVQLVQSGAEVKKPGESLKISCKGSGYRFTNYWIGWVRQMPGKGLEWMGIIYPGDSDTKYSPSFQGQVTISADKSISTAYLQWSSLKASDTAMYYCARHGGYSGRSYYYGMDVWGQGTAVTVSS VL: not shown	~1.3 nM	
2C3 (antibody, V domains shown) VH: EVQLVQSGAEVKKPGESLKISCKGSGYRFTSYWIGWVRQMPGKGLEWMGIIYPGDSDTRYSPSFQGQVTISADKSISAAYLQWSSLKASDTAMYYCARQQVAGMLDYWGQGTLVTVSS VL: EIVLTQSPGTLSLSPGERATLSCRASQSFSSSYLVWYQQKPGQAPRLLIYGASSRATGIPDRFGGSGSGTDFTLTISRLEPEDFAVYYCQQYGSSPLTFGGGTKVEIK		~1.2 nM
